From patent US20060115839A1 (published 2006) come the findings set out here.

This experiment has as its target endogenous histone H3 in U2OS cells (human, UniProt P68431 2-136). Put plainly: formaldehyde crosslinking in irradiated U2OS cells, nickel bead capture, H3 immunoblot (FIG. 3g). On the procedure: Non-transfected U2OS osteosarcoma cells and transfected U2OS cells expressing His-tagged GFP-53BP1 fusion proteins with wild-type or mutant (Asp1521Arg) 53BP1 sequences were pre-extracted with Triton-X100 in situ 15 min after irradiation and then treated with formaldehyde to crosslink interacting proteins. His-tagged GFP-53BP1 was then affinity-purified on nickel-coated beads and bound histone H3 was detected by immunoblotting after the crosslinks were reversed by boiling. Histone H3 was captured on beads incubated with extracts from His-tagged GFP-wild-type 53BP1 expressing cells treated with formaldehyde, but not on beads incubated with extracts from cells that were mock-crosslinked or that were expressing the Asp1521Arg mutant protein (FIG. 3g). Further, the crosslinking was specific for histone H3, because histone H2A, although present in the Triton-X100 insoluble material, was not captured by the beads (data not shown).
Proteins were crosslinked with formaldehyde³⁰. Parental U2OS cells and U2OS cells expressing N-terminally His-tagged GFP-53BP1 fusion proteins containing residues 1220-1711 of 53BP1 were exposed to 9 Gy IR. […] Histone H3 was detected by immunoblotting after the crosslinks were reversed by boiling.
In general terms: In western blotting, separated proteins are transferred to a membrane and probed.

B1: N-terminally His-tagged GFP-53BP1 fusion protein containing residues 1220-1711 of 53BP1 with Asp1521Arg (other)
chain: QGEEEFDMPQPPHGHVLHRHMRTIREVRTLVTRVITDVYYVDGTEVERKVTEETEEPIVECQECETEVSPSQTGGSSGDLGDISSFSSKASSLHRTSSGTSLSAMHSSGSSGKGAGPLRGKTSGTEPADFALPSSRGGPGKLSPRKGVSQTGTPVCEEDGDAGLGIRQGGKAPVTPRGRGRRGRPPSRTTGTRETAVPGPLGIEDISPNLSPDDKSFSRVVPRVPDSTRRTDVGAGALRRSDSPEIPFQAAAGPSDGLDASSPGNSFVGLRVVAKWSSNGYFYSGKITRDVGAGKYKLLFDRGYECDVLGKDILLCDPIPLDTEVTALSEDEYFSAGVVKGHRKESGELYYSIEKEGQRKWYKRMAVILSLEQGNRLREQYGLGPYEAVTPLTKAADISLDNLVEGKRKRRSNVSSPATPTASSSSSTTPTRKITESPRASMGVLSGKRKLITSEEERSPAKRGRKSATVKPGAVGAGEFVSPCESGDNTGE
notes: Expressed in U2OS cells; crosslinked in situ with formaldehyde; also called His-tagged GFP-53BP1 D1521R; Asp1521Arg mutant protein; not shown: N-terminal His tag and GFP, with any linkers
For the molecule B1, the binding result was “no binding”.
